For experiment [1], the target named is T1, human CTLA-4 (amino acids M1-N223) on stably transfected VI-fibroblast cells (human, UniProt P16410 36-223).
T1 construct: also called VI-fibroblast/hCTLA-4
Nature of the experiment: ECL cell binding, VI-fibroblast/hCTLA-4 cells.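 Also: antibodies bound to the cells on carbon electrode plates, detected via SULFO-TAG anti-IgG secondary (1 h, RT), electrochemiluminescence read as RLU over a concentration range.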

The target in experiment [2] is T2, recombinant hCTLA-4-mFc (human CTLA-4 extracellular domain with a C-terminal Fc portion of mouse IgG2a) (human).
T2 construct: also called dimeric CTLA-4 protein
The experiment in a line: competition ELISA, 400 pM hCTLA-4-mFc on plate-coated hB7-2-hIgG1-6His. (ELISA stands for enzyme-linked immunosorbent assay.)

The target in experiment [3] is T3, soluble human CTLA-4 expressed with a C-terminal myc-myc-polyhistidine tag (human).
T3 construct: soluble protein; also called hCTLA-4.mmh; hCTLA4.mmh
The experiment in a line: SPR, mAb capture, 25 C. Background: SPR reads the build-up and loss of mass on a sensor chip optically.

The target in experiment [4] is T2, recombinant hCTLA-4-mFc (human CTLA-4 …). Nature of the experiment: competition ELISA, 200 pM hCTLA-4-mFc on plate-coated hB7-1-hIgG1-6His.

T1 sequence (P16410 36-223 limits assumed): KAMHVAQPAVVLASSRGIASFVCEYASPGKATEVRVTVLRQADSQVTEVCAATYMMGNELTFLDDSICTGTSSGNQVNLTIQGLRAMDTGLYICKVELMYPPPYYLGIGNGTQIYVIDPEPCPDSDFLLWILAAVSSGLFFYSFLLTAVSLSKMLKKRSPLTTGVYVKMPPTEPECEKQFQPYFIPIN
T2 sequence (chain, as listed by the source limits assumed): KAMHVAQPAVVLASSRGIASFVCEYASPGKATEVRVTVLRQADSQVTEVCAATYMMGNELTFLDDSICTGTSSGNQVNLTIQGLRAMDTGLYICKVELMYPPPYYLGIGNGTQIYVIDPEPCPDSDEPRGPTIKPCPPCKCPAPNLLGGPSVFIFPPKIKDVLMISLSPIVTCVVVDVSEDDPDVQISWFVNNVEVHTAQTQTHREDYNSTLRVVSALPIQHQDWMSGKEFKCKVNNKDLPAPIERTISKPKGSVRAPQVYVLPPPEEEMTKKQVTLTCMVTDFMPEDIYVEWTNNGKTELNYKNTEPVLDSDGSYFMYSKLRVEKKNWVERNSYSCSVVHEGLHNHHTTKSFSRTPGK

B1: H2M20379N (antibody, mouse IgG2, V domains shown)
VH: QVQLVESGGGVVQPGRSLRLSCAASGITFSSYGMHWVRQAPGKGLEWVALTSYDGSKKYYSDSVKGRFTISRDNSKNTLYLQMNSLRPEDTAVYYCAKDKGGDDYYGMDVWGQGTTVTVSS
VL: EIVLTQSPGTLSLSPGERATLSCRASQWISSSYLAWYQQKPGQAPRLLIYGAFSRAPGIPGRFSGSGSGTDFTLTISRLEPEDFAVYYCQQYGSSPYTFGQGTKLEIN
notes: hybridoma antibody, human variable domains, mouse IgG2 Fc (H2M)
For orientation: EC50 means the concentration needed to bring the measured effect to its halfway point. Low readings indicate a more potent agent, high ones a less potent agent. B1: in experiment [1], the EC50 was found to be 0.092 nM and the “ratio of RLU signal to parental VI-fibroblast at 0.6 nM Ab” value (shortened to “ratio of RLU signal”) is 28 ratio.

B2: H2M20375N (antibody, mouse IgG2, V domains shown)
VH: QLQLQESGPGLVKPSETLSFTCTVSGGSISSNYYYWGWVRQSPGKGLEWIGSIYHTGNAYDNPSLKSRVTISVDTSKNQFSLNLNSVTAADTAIYYCARHHSSSSWWYFDVWGRGTLVIVSS
VL: EIVLTQSPDTLSLSPGERATLSCRASQTVSNSHLAWYQQKPGQAPRLLIYGTSSRATGIPDRFSGSGSGTDFSLTIIRLEPDDFAVYFCQQHESSPPTFGQGAKLEIK
notes: as for B1
On to B2, for which, in experiment [1], the EC50 is 0.19 nM and the “ratio of RLU signal” value was 18 ratio.

B3: H1H20372N (antibody, human IgG1, V domains shown)
VH: EVQLVESGGGLVQPGRSLRLSCAGTGFIFDDYAMHWVRQAPGKGLEWVSGISWNSNSLGYADSVKGRFTISRDNAKKSLYLQMSSLRAEDTALYYCVKDVTRLELRGFLDYWGQGTQVTVSS
VL: DIQMTQSPSSLSASVGDRVTITCRASQDIRNDLGWHQQKSGKAPKSLIYAASSLQSGAPSRFSGSGSGTEFTLTISSLQPEDSATYYCLQQNSYPPTFGQGTKVEIK
notes: here with human IgG1 Fc (H1H)
By IC50 is commonly meant the concentration at which inhibition is half-maximal. As a reminder, the Kd is the concentration at which binding is half-saturated. Usually koff stands for a measure of how fast the partners let go of each other. In general, kon refers to a measure of how fast the partners come together. A high value points to fast association. As for B3, in experiment [2], the “% Blockade” value turned out to be 98% and the IC50 came to 0.99 nM. In addition, in experiment [3], the affinity, expressed as Kd, was 4.55 nM; the koff was 0.000367 s⁻¹; the kon was determined as 80500 M⁻¹ s⁻¹; the t1/2 came out at 31.5 min. In addition, in experiment [4], the “% Blockade” value was determined as 98% and the IC50 was found to be 2.5 nM.

B4: H1M20372N (antibody, mouse IgG1, V domains shown)
VH: EVQLVESGGGLVQPGRSLRLSCAGTGFIFDDYAMHWVRQAPGKGLEWVSGISWNSNSLGYADSVKGRFTISRDNAKKSLYLQMSSLRAEDTALYYCVKDVTRLELRGFLDYWGQGTQVTVSS
VL: DIQMTQSPSSLSASVGDRVTITCRASQDIRNDLGWHQQKSGKAPKSLIYAASSLQSGAPSRFSGSGSGTEFTLTISSLQPEDSATYYCLQQNSYPPTFGQGTKVEIK
notes: hybridoma antibody, human variable domains, mouse IgG1 Fc (H1M)
For the molecule B4, in experiment [1], the half-maximal effective concentration (EC50) came to 0.88 nM and the “ratio of RLU signal” value was found to be 14 ratio.

B5: H2M20369N (antibody, mouse IgG2, V domains shown)
VH: QVQLVQSGTEVKRPGASVKVSCKASGFTFTGYYIYWVRQAPGEGLEWMGWINPHSGGTKYAQKFQGRVTLTRDTSINTAYLDLISLRSDDTAVYYCARIGGGGYSSYFDYWGQGTLVTVSS
VL: DIQLTQSPSSLSASVGDRVTITCRASQTISTYLNWYQQKPGNAPKLLIYAASSLQSGVPSRFSGRGSGTDFTLTISSLQPEDFATYYCQQGYTTPPITFGQGTRLEIK
notes: as for B1
For B5, in experiment [1], it took 0.9 nM to reach a half-maximal effect (EC50) and the “ratio of RLU signal” value came to 18 ratio.

B6: H2M20385N (antibody, mouse IgG2, V domains shown)
VH: QVQLVQSGAEVKKPGASVKVSCKTSGYTFTNNGISWVRQVPGQGLEWMGWISPYNGNTKYAQKFQGRVTMTTDTSTTTVYMDVRSLRSDDTAVYFCARDGPITISYFGMDVWGQGTTVTVSS
VL: DIQMTQSPSSLSASVGDRVTITCRASQSISTYLNWYQQKPGKAPKLLIYAASTLQSGVPSRFGGSGSGTDFTLTVSSLQPEDFATYYCQQSYSTPPITFGQGTRLEIN
notes: as for B1
Take B6: in experiment [1], the response was half-maximal at 5.5 nM (EC50) and the “ratio of RLU signal” value worked out at 8 ratio.

B7: H2M20387N (antibody, mouse IgG2, V domains shown)
VH: QVQLVESGGGVVQPGRSLRLSCAASGFTFSSYGIHWVRQAPGKGLEWVAVIWYGGNNKYYADSVKGRFTISRDNSKNTLYLQMNSLRAEDTALYHCARSGNFGAFDIWGQGTMVTVSS
VL: EIVLTQSPGTLSLSPGERATLSCRASQSVSSYLAWYQQKPGQAPRLLIYGASSRATGIPDRFSGSGSGTDFILTINRLEPEDFAVYYCQHYGNSPWTFGQGTKVEIK
notes: as for B1
Regarding B7, the “ratio of RLU signal” value in experiment [1] came out at 3 ratio.

B8: H1H20370N (antibody, human IgG1, V domains shown)
VH: QVQLHESGPGLVKPSQTLSLTCSVSGGSISNGGYYWSWIRQHPGQGLEWIGYIYYIGNTYYNPSLESRVTMSIDTSKNQFSLKLSSVTAADTAIYYCARQEFVPGAEYFLHWGQGILVTVSS
VL: DIRMTQSPSSLSASVGDRVTITCRASQTVNTFLNWYQQKPGKAPKLLIFGASSLQSGVPSRFSGSGSGTDFTLTISGLQPEDFAIYYCQQSYSVPPITFGQGTRLEIE
notes: here with human IgG1 Fc (H1H)
In the case of B8, in experiment [2], the “% Blockade” value is 96% and the IC50 was 0.99 nM. In experiment [3], the affinity, expressed as Kd, was 3.43 nM; the koff was 0.000588 s⁻¹; the kon amounted to 172000 M⁻¹ s⁻¹; the t1/2 is 19.6 min. In addition, in experiment [4], the “% Blockade” value worked out at 95% and the IC50 turned out to be 0.86 nM.

B9: H1M20370N (antibody, mouse IgG1, V domains shown)
VH: QVQLHESGPGLVKPSQTLSLTCSVSGGSISNGGYYWSWIRQHPGQGLEWIGYIYYIGNTYYNPSLESRVTMSIDTSKNQFSLKLSSVTAADTAIYYCARQEFVPGAEYFLHWGQGILVTVSS
VL: DIRMTQSPSSLSASVGDRVTITCRASQTVNTFLNWYQQKPGKAPKLLIFGASSLQSGVPSRFSGSGSGTDFTLTISGLQPEDFAIYYCQQSYSVPPITFGQGTRLEIE
notes: as for B4
Consider B9, for which, in experiment [1], the EC50 was 0.22 nM and the “ratio of RLU signal” value was found to be 23 ratio.

B10: H1H20373N (antibody, human IgG1, V domains shown)
VH: EVQLLESGGGLVQPGGSLRLSCAASGFTFSSYAMSWVRQAPGKGLEWVSDISGSGLSTYYADSVKGRFAISRDNSKNMLYLQMNRLRAEDTAVYYCAKEPSHWNGEAFDIWGQGTMVTVSS
VL: DIQMTQSPSSVSASVGDRVTITCRASQDISSWLAWYQQKPGKAPKLLIYTTANLQSGVPSRFSGSGSGTDFTLTISSLQSEDFATYYCQQANSFPFTFGSGTKVDIK
notes: here with human IgG1 Fc (H1H)
As for B10, in experiment [2], the “% Blockade” value stood at 91% and the IC50 is 34 nM. For the same molecule, in experiment [3], the affinity, expressed as Kd, was 0.766 nM; the koff turned out to be 0.000401 s⁻¹; the kon turned out to be 523000 M⁻¹ s⁻¹; the t1/2 is 28.8 min. In addition, the “% Blockade” value in experiment [4] is 22%.

B11: H2M20373N (antibody, mouse IgG2, V domains shown)
VH: EVQLLESGGGLVQPGGSLRLSCAASGFTFSSYAMSWVRQAPGKGLEWVSDISGSGLSTYYADSVKGRFAISRDNSKNMLYLQMNRLRAEDTAVYYCAKEPSHWNGEAFDIWGQGTMVTVSS
VL: DIQMTQSPSSVSASVGDRVTITCRASQDISSWLAWYQQKPGKAPKLLIYTTANLQSGVPSRFSGSGSGTDFTLTISSLQSEDFATYYCQQANSFPFTFGSGTKVDIK
notes: as for B1
Turning to B11, in experiment [1], the EC50 is 0.062 nM and the “ratio of RLU signal” value is 22 ratio.

B12: H1H20361N (antibody, human IgG1, V domains shown)
VH: QVQLQESGPGLVKPSQTLSLTCTVSGGSINNGGHYWTWIRQHPGKGLEWIGYIYYIGTTYYNPSLESRLSLSVDTSKNQFSLKLSSVTAADTAIYYCARSSLSVSEAFDVWGQGTMVTVSS
VL: DIQMTQSPSSLSASVGDRITITCRGSQNIGSFLSWYQQRPGKAPKLLIFGAYNLQGGVPSRFSGSGSGTDFTLTISSLQPEDFATYFCQQSYSTPPITFGQGTRLEIK
notes: here with human IgG1 Fc (H1H)
Regarding B12, in experiment [2], the “% Blockade” value came out at 82% and the IC50 is 65 nM. In experiment [3], this molecule registered a Kd of 32.1 nM, a koff of 0.00199 s⁻¹, a kon of 62100 M⁻¹ s⁻¹ and a t1/2 of 5.8 min. In addition, in experiment [4], the “% Blockade” value stood at 73% and the IC50 is 69 nM.

B13: H2M20361N (antibody, mouse IgG2, V domains shown)
VH: QVQLQESGPGLVKPSQTLSLTCTVSGGSINNGGHYWTWIRQHPGKGLEWIGYIYYIGTTYYNPSLESRLSLSVDTSKNQFSLKLSSVTAADTAIYYCARSSLSVSEAFDVWGQGTMVTVSS
VL: DIQMTQSPSSLSASVGDRITITCRGSQNIGSFLSWYQQRPGKAPKLLIFGAYNLQGGVPSRFSGSGSGTDFTLTISSLQPEDFATYFCQQSYSTPPITFGQGTRLEIK
notes: as for B1
As to B13, in experiment [1], the EC50 turned out to be 0.32 nM and the “ratio of RLU signal” value stood at 19 ratio.

B14: H2M20368N (antibody, mouse IgG2, V domains shown)
VH: QVQLQESGPGLVRPSQTLSLTCTVSGGSISNGGYYWTWIRQNPGKGLEWIGYIYYIGTTYYNPSLESRLSLSVDTSKNQFSLKLTSVTAADTAVYYCARSSLAVSEAFDIWGQGTMVTVSS
VL: DIQMTQSPSSLSASVGDRFTITCRASQSIGSFLSWYQQKPGKAPKLLIYAASSLQSGVPSRFSGSGSGTDFTLTISSLQPEDFATYYCQQSYNTPPITFGQGTRLEIK
notes: as for B1
Take B14: in experiment [1], it took 0.26 nM to reach a half-maximal effect (EC50) and the “ratio of RLU signal” value came out at 25 ratio.

B15: H1M20393N (antibody, V domains shown)
VH: DRQMVESGGGVVQPGRSLRLSCIASGFIISRYGMHWVRQAPGKGLEWVAVIWYDGRNKNYADSVKGRFTISRDNSKNTLYLEMNSLRAEDTAVYYCGRVHQFGAFDIWGQGTMVTVSS
VL: not shown
notes: as for B4
With B15, in experiment [1], the midpoint of the response, the EC50, lay at 7.3 nM and the “ratio of RLU signal” value was found to be 12 ratio.

B16: H2M20386N (antibody, mouse IgG2, V domains shown)
VH: QVQLVESGGGVVQPGRSLRLSCAASGFTVNRYGIHWVRQAPGKGLEWVAVTWYDGRNKYFADSVKGRFSFSRDSSTNTLYLQMNSLRAEDTAVYYCARGGLFGYFDYWGQGTLVTVSS
VL: EIVLTQSPDTLSLSPGERATLSCRASQSVAGSYLAWYQQKPGQAPRLLIYGASSRATGIPDRFSGSGSGTDFTLTISRLEPEDFAVYYCQQYGTSPWTFGQGTKVEIT
notes: as for B1
For B16, in experiment [1], the “ratio of RLU signal” value came out at 3 ratio.

Source of the values: patent publication US20210040232A1 (Regeneron, published 2021).
